Experiments:
Format in all cases: biochemical, Arabidopsis thaliana
[1] = substrate: Nc1ncnc2c1ncn2[C@@H]1O[C@H](COP(=O)(O)OP(=O)(O)OP(=O)(O)O)[C@@H](O)[C@H]1O; assay: Malachite Green phosphate release, non-linear fit; details: pH 5.0, no metal, 37 °C
[2] = substrate: N[C@@H](Cc1ccc(OP(=O)(O)O)cc1)C(=O)O; assay: Malachite Green phosphate release, non-linear fit; details: pH 5.0, no metal, 37 °C, substrate inhibition above 3.0 mM
[3] = substrate: O=[N+]([O-])c1ccc(OP(=O)(O)O)cc1; assay: phosphatase assay, non-linear fit; details: pH 5.0, no metal, 37 °C

B1: At1g05000 (Arabidopsis thaliana; M1S) (protein)
chain: SKLVEKTTTTEQDNGEDFCRTIIEVSEVNRNVFQAPGGEADPFRVVSGEELHLIPPLNFSMVDNGIFRSGFPDSANFSFLQTLGLRSIIYLCPEPYPESNLQFLKSNGIRLFQFGIEGNKEPFVNIPDHKIRMALKVLLDEKNHPVLIHCKRGKHRTGCLVGCLRKLQKWCLTSIFDEYQRFAAAKARVSDQRFMEIFDVSSFSHIPMSFSCSIR
Km [1]: 480 ± 50 µM
Vmax [1]: 1.52 µmol/min/mg
kcat [1]: 0.62 ± 0.02 s⁻¹
kcat/Km [1]: 1290 M⁻¹ s⁻¹
Km [2]: 880 ± 100 µM
Vmax [2]: 0.19 µmol/min/mg
kcat [2]: 0.077 ± 0.004 s⁻¹
kcat/Km [2]: 87.5 M⁻¹ s⁻¹
Km [3]: 670 ± 140 µM
Vmax [3]: 0.64 µmol/min/mg
kcat [3]: 0.26 ± 0.02 s⁻¹
kcat/Km [3]: 392 M⁻¹ s⁻¹
